Experimental data from the supplement of paper PMC5998384.

Legend:
HeLa Kyoto [1] = assay: thermal stability score vs G1/S (z-score of summed log2 fold changes over temperatures); higher = more thermally stable than in G1/S
HeLa Kyoto [2] = assay: melting temperature (median over replicates), in situ; higher = more thermally stable; conditions: cell cycle stage: G1/S
[3] = cell cycle stage: early G1 (4.5 h after nocodazole release)
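Throughout, for melting temperature (median over replicates), in situ: HeLa Kyoto cells synchronized by double thymidine or nocodazole block, proteins quantified by TMT10plex mass spectrometry, three independent biological replicates.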
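Throughout, for thermal stability score vs G1/S (z-score of summed log2 fold changes over temperatures): synchronized HeLa Kyoto cells, proteins quantified by TMT10plex mass spectrometry, three biological replicates, mitosis taken 0.5 h after nocodazole release, G1/S directly after double thymidine block.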

Substance: MAAQGEPGYLAAQSDPGSNSERSTDSPVPGSEDDLVAGATLHSPEWSEERFRVDRKKLEAMLQAAAEGKGRSGEDFFQKIMEETNTQIAWPSKLKIGAKSKKDPHIKVSGKKEDVKEAKEMIMSVLDTKSNRVTLKMDVSHTEHSHVIGKGGNNIKKVMEETGCHIHFPDSNRNNQAEKSNQVSIAGQPAGVESARVRIRELLPLVLMFELPIAGILQPVPDPNSPSIQHISQTYNISVSFKQRSRMYGATVIVRGSQNNTSAVKEGTAMLLEHLAGSLASAIPVSTQLDIAAQHHLFMMGRNGSNIKHIMQRTGAQIHFPDPSNPQKKSTVYLQGTIESVCLARQYLMGCLPLVLMFDMKEEIEVDPQFIAQLMEQLDVFISIKPKPKQPSKSVIVKSVERNALNMYEARKCLLGLESSGVTIATSPSPASCPAGLACPSLDILASAGLGLTGLGLLGPTTLSLNTSTTPNSLLNALNSSVSPLQSPSSGTPSPTLWAPPLANTSSATGFSAIPHLMIPSTAQATLTNILLSGVPTYGHTAPSPPPGLTPVDVHINSMQTEGKKISAALNGHAQSPDIKYGAISTSSLGEKVLSANHGDPSIQTSGSEQTSPKSSPTEGCNDAFVEVGMPRSPSHSGNAGDLKQMMCPSKVSCAKRQTVELLQGTKNSHLHSTDRLLSDPELSATESPLADKKAPGSERAAERAAAAQQNSERAHLAPRSSYVNMQAFDYEQKKLLATKAMLKKPVVTEVRTPTNTWSGLGFSKSMPAETIKELRRANHVSYKPTMTTTYEGSSMSLSRSNSREHLGGGSESDNWRDRNGIGPGSHSEFAASIGSPKRKQNKSTEHYLSSSNYMDCISSLTGSNGCNLNSSFKGSDLPELFSKLGLGKYTDVFQQQEIDLQTFLTLTDQDLKELGITTFGARRKMLLAISELNKNRRKLFESPNARTSFLEGGASGRLPRQYHSDIASVSGRW [BICC1]
- thermal stability score (HeLa Kyoto [1]; [3]): -0.0285
- thermal stability score (HeLa Kyoto [1]; cell cycle stage: mitosis): 0.296

Substance: MNCRSEVLEVSVEGRQVEEAMLAVLHTVLLHRSTGKFHYKKEGTYSIGTVGTQDVDCDFIDFTYVRVSSEELDRALRKVVGEFKDALRNSGGDGLGQMSLEFYQKKKSRWPFSDECIPWEVWTVKVHVVALATEQERQICREKVGEKLCEKIINIVEVMNRHEYLPKMPTQSEVDNVFDTGLRDVQPYLYKISFQITDALGTSVTTTMRRLIKDTLAL [ATG101]
- thermal stability score (HeLa Kyoto [1]; [3]): 0.111
- thermal stability score (HeLa Kyoto [1]; cell cycle stage: mitosis): 1.17

Substance: MGAALGTGTRLAPWPGRACGALPRWTPTAPAQGCHSKPGPARPVPLKKRGYDVTRNPHLNKGMAFTLEERLQLGIHGLIPPCFLSQDVQLLRIMRYYERQQSDLDKYIILMTLQDRNEKLFYRVLTSDVEKFMPIVYTPTVGLACQHYGLTFRRPRGLFITIHDKGHLATMLNSWPEDNIKAVVVTDGERILGLGDLGCYGMGIPVGKLALYTACGGVNPQQCLPVLLDVGTNNEELLRDPLYIGLKHQRVHGKAYDDLLDEFMQAVTDKFGINCLIQFEDFANANAFRLLNKYRNKYCMFNDDIQGTASVAVAGILAALRITKNKLSNHVFVFQGAGEAAMGIAHLLVMALEKEGVPKAEATRKIWMVDSKGLIVKGRSHLNHEKEMFAQDHPEVNSLEEVVRLVKPTAIIGVAAIAGAFTEQILRDMASFHERPIIFALSNPTSKAECTAEKCYRVTEGRGIFASGSPFKSVTLEDGKTFIPGQGNNAYVFPGVALGVIAGGIRHIPDEIFLLTAEQIAQEVSEQHLSQGRLYPPLSTIRDVSLRIAIKVLDYAYKHNLASYYPEPKDKEAFVRSLVYTPDYDSFTLDSYTWPKEAMNVQTV [ME3]
- thermal stability score (HeLa Kyoto [1]; [3]): -5.4
- thermal stability score (HeLa Kyoto [1]; cell cycle stage: mitosis): -4.14

Substance: KIAA0100
- thermal stability score (HeLa Kyoto [1]; [3]): 1.31
- thermal stability score (HeLa Kyoto [1]; cell cycle stage: mitosis): 1.36

Substance: MKSLVLLLCLAQLWGCHSAPHGPGLIYRQPNCDDPETEEAALVAIDYINQNLPWGYKHTLNQIDEVKVWPQQPSGELFEIEIDTLETTCHVLDPTPVARCSVRQLKEHAVEGDCDFQLLKLDGKFSVVYAKCDSSPDSAEDVRKVCQDCPLLAPLNDTRVVHAAKAALAAFNAQNNGSNFQLEEISRAQLVPLPPSTYVEFTVSGTDCVAKEATEAAKCNLLAEKQYGFCKATLSEKLGGAEVAVTCMVFQTQPVSSQPQPEGANEAVPTPVVDPDAPPSPPLGAPGLPPAGSPPDSHVLLAAPPGHQLHRAHYDLRHTFMGVVSLGSPSGEVSHPRKTRTVVQPSVGAAAGPVVPPCPGRIRHFKV [AHSG]
- thermal stability score (HeLa Kyoto [1]; [3]): -0.0372
- thermal stability score (HeLa Kyoto [1]; cell cycle stage: mitosis): -0.632

Substance: SPG11
- thermal stability score (HeLa Kyoto [1]; [3]): -0.413
- thermal stability score (HeLa Kyoto [1]; cell cycle stage: mitosis): -0.459

Substance: MAAAVAAALARLLAAFLLLAAQVACEYGMVHVVSQAGGPEGKDYCILYNPQWAHLPHDLSKASFLQLRNWTASLLCSAADLPARGFSNQIPLVARGNCTFYEKVRLAQGSGARGLLIVSRERLVPPGGNKTQYDEIGIPVALLSYKDMLDIFTRFGRTVRAALYAPKEPVLDYNMVIIFIMAVGTVAIGGYWAGSRDVKKRYMKHKRDDGPEKQEDEAVDVTPVMTCVFVVMCCSMLVLLYYFYDLLVYVVIGIFCLASATGLYSCLAPCVRRLPFGKCRIPNNSLPYFHKRPQARMLLLALFCVAVSVVWGVFRNEDQWAWVLQDALGIAFCLYMLKTIRLPTFKACTLLLLVLFLYDIFFVFITPFLTKSGSSIMVEVATGPSDSATREKLPMVLKVPRLNSSPLALCDRPFSLLGFGDILVPGLLVAYCHRFDIQVQSSRVYFVACTIAYGVGLLVTFVALALMQRGQPALLYLVPCTLVTSCAVALWRRELGVFWTGSGFAKVLPPSPWAPAPADGPQPPKDSATPLSPQPPSEEPATSPWPAEQSPKSRTSEEMGAGAPMREPGSPAESEGRDQAQPSPVTQPGASA [SPPL2B]
- thermal stability score (HeLa Kyoto [1]; [3]): 0.962
- thermal stability score (HeLa Kyoto [1]; cell cycle stage: mitosis): -2.37

Substance: HRNR
- thermal stability score (HeLa Kyoto [1]; [3]): 5.84
- thermal stability score (HeLa Kyoto [1]; cell cycle stage: mitosis): 1.12

Substance: MRRGERRDAGGPRPESPVPAGRASLEEPPDGPSAGQATGPGEGRRSTESEVYDDGTNTFFWRAHTLTVLFILTCTLGYVTLLEETPQDTAYNTKRGIVASILVFLCFGVTQAKDGPFSRPHPAYWRFWLCVSVVYELFLIFILFQTVQDGRQFLKYVDPKLGVPLPERDYGGNCLIYDPDNETDPFHNIWDKLDGFVPAHFLGWYLKTLMIRDWWMCMIISVMFEFLEYSLEHQLPNFSECWWDHWIMDVLVCNGLGIYCGMKTLEWLSLKTYKWQGLWNIPTYKGKMKRIAFQFTPYSWVRFEWKPASSLRRWLAVCGIILVFLLAELNTFYLKFVLWMPPEHYLVLLRLVFFVNVGGVAMREIYDFMDDPKPHKKLGPQAWLVAAITATELLIVVKYDPHTLTLSLPFYISQCWTLGSVLALTWTVWRFFLRDITLRYKETRWQKWQNKDDQGSTVGNGDQHPLGLDEDLLGPGVAEGEGAPTPN [PTDSS2]
- thermal stability score (HeLa Kyoto [1]; [3]): -0.906
- thermal stability score (HeLa Kyoto [1]; cell cycle stage: mitosis): -3.56

Substance: MALCEAAGCGSALLWPRLLLFGDSITQFSFQQGGWGASLADRLVRKCDVLNRGFSGYNTRWAKIILPRLIRKGNSLDIPVAVTIFFGANDSALKDENPKQHIPLEEYAANLKSMVQYLKSVDIPENRVILITPTPLCETAWEEQCIIQGCKLNRLNSVVGEYANACLQVAQDCGTDVLDLWTLMQDSQDFSSYLSDGLHLSPKGNEFLFSHLWPLIEKKVSSLPLLLPYWRDVAEAKPELSLLGDGDH [IAH1]
- thermal stability score (HeLa Kyoto [1]; [3]): 0.993
- thermal stability score (HeLa Kyoto [1]; cell cycle stage: mitosis): -0.17

Substance: MSGGDTRAAIARPRMAAAHGPVAPSSPEQVTLLPVQRSFFLPPFSGATPSTSLAESVLKVWHGAYNSGLLPQLMAQHSLAMAQNGAVPSEATKRDQNLKRGNWGNQIEFVLTSVGYAVGLGNVWRFPYLCYRNGGGAFMFPYFIMLIFCGIPLFFMELSFGQFASQGCLGVWRISPMFKGVGYGMMVVSTYIGIYYNVVICIAFYYFFSSMTHVLPWAYCNNPWNTHDCAGVLDASNLTNGSRPAALPSNLSHLLNHSLQRTSPSEEYWRLYVLKLSDDIGNFGEVRLPLLGCLGVSWLVVFLCLIRGVKSSGKVVYFTATFPYVVLTILFVRGVTLEGAFDGIMYYLTPQWDKILEAKVWGDAASQIFYSLGCAWGGLITMASYNKFHNNCYRDSVIISITNCATSVYAGFVIFSILGFMANHLGVDVSRVADHGPGLAFVAYPEALTLLPISPLWSLLFFFMLILLGLGTQFCLLETLVTAIVDEVGNEWILQKKTYVTLGVAVAGFLLGIPLTSQAGIYWLLLMDNYAASFSLVVISCIMCVAIMYIYGHRNYFQDIQMMLGFPPPLFFQICWRFVSPAIIFFILVFTVIQYQPITYNHYQYPGWAVAIGFLMALSSVLCIPLYAMFRLCRTDGDTLLQRLKNATKPSRDWGPALLEHRTGRYAPTIAPSPEDGFEVQPLHPDKAQIPIVGSNGSSRLQDSRI [SLC6A9]
- thermal stability score (HeLa Kyoto [1]; [3]): -0.03
- thermal stability score (HeLa Kyoto [1]; cell cycle stage: mitosis): 1.01

Substance: MNCEREQLRGNQEAAAAPDTMAQPYASAQFAPPQNGIPAEYTAPHPHPAPEYTGQTTVPEHTLNLYPPAQTHSEQSPADTSAQTVSGTATQTDDAAPTDGQPQTQPSENTENKSQPKRLHVSNIPFRFRDPDLRQMFGQFGKILDVEIIFNERGSKGFGFVTFENSADADRAREKLHGTVVEGRKIEVNNATARVMTNKKTVNPYTNGWKLNPVVGAVYSPEFYAGTVLLCQANQEGSSMYSAPSSLVYTSAMPGFPYPAATAAAAYRGAHLRGRGRTVYNTFRAAAPPPPIPAYGGVVYQDGFYGADIYGGYAAYRYAQPTPATAAAYSDSYGRVYAADPYHHALAPAPTYGVGAMNAFAPLTDAKTRSHADDVGLVLSSLQASIYRGGYNRFAPY [RBFOX1]
- melting temperature (HeLa Kyoto [2]): 49.8 °C

Substance: MDDSGELGGLETMETLTELGDELTLGDIDEMLQFVSNQVGEFPDLFSEQLCSSFPGSGGSGSSSGSSGSSSSSSNGRGSSSGAVDPSVQRSFTQVTLPSFSPSAASPQAPTLQVKVSPTSVPTTPRATPILQPRPQPQPQPQTQLQQQTVMITPTFSTTPQTRIIQQPLIYQNAATSFQVLQPQVQSLVTSSQVQPVTIQQQVQTVQAQRVLTQTANGTLQTLAPATVQTVAAPQVQQVPVLVQPQIIKTDSLVLTTLKTDGSPVMAAVQNPALTALTTPIQTAALQVPTLVGSSGTILTTMPVMMGQEKVPIKQVPGGVKQLEPPKEGERRTTHNIIEKRYRSSINDKIIELKDLVMGTDAKMHKSGVLRKAIDYIKYLQQVNHKLRQENMVLKLANQKNKLLKGIDLGSLVDNEVDLKIEDFNQNVLLMSPPASDSGSQAGFSPYSIDSEPGSPLLDDAKVKDEPDSPPVALGMVDRSRILLCVLTFLCLSFNPLTSLLQWGGAHDSDQHPHSGSGRSVLSFESGSGGWFDWMMPTLLLWLVNGVIVLSVFVKLLVHGEPVIRPHSRSSVTFWRHRKQADLDLARGDFAAAAGNLQTCLAVLGRALPTSRLDLACSLSWNVIRYSLQKLRLVRWLLKKVFQCRRATPATEAGFEDEAKTSARDAALAYHRLHQLHITGKLPAGSACSDVHMALCAVNLAECAEEKIPPSTLVEIHLTAAMGLKTRCGGKLGFLASYFLSRAQSLCGPEHSAVPDSLRWLCHPLGQKFFMERSWSVKSAAKESLYCAQRNPADPIAQVHQAFCKNLLERAIESLVKPQAKKKAGDQEEESCEFSSALEYLKLLHSFVDSVGVMSPPLSRSSVLKSALGPDIICRWWTSAITVAISWLQGDDAAVRSHFTKVERIPKALEVTESPLVKAIFHACRAMHASLPGKADGQQSSFCHCERASGHLWSSLNVSGATSDPALNHVVQLLTCDLLLSLRTALWQKQASASQAVGETYHASGAELAGFQRDLGSLRRLAHSFRPAYRKVFLHEATVRLMAGASPTRTHQLLEHSLRRRTTQSTKHGEVDAWPGQRERATAILLACRHLPLSFLSSPGQRAVLLAEAARTLEKVGDRRSCNDCQQMIVKLGGGTAIAAS [SREBF2]
- thermal stability score (HeLa Kyoto [1]; [3]): 7.8e-18
- thermal stability score (HeLa Kyoto [1]; cell cycle stage: mitosis): 1.52e-16
